{
  "source": "paper PMC6312627",
  "key": {"[1]": {"molecular_target": "streptavidin (MST) (UniProt P22629)", "assay": "MST", "details": "PBSMCT selection buffer (PBS with Mg2+, CaCl2, 0.01% Tween 20; full composition not in material), pH 7.4 or pH 5.2 (HCl); bead assays at RT, MST at 25 C with …"}, "[2]": {"molecular_target": "streptavidin-phycoerythrin (SA-PE) (UniProt P22629)", "assay": "bead-based flow cytometry", "details": "PBSMCT selection buffer (PBS with Mg2+, CaCl2, 0.01% Tween 20; full composition not in material), pH 7.4 or pH 5.2 (HCl); bead assays at RT, MST at 25 C with …"}, "[3]": {"molecular_target": "streptavidin-phycoerythrin (SA-PE) (UniProt P22629)", "assay": "bead-based flow cytometry", "details": "PBSMCT selection buffer (PBS with Mg2+, CaCl2, 0.01% Tween 20; full composition not in material), pH 7.4 or pH 5.2 (HCl); bead assays at RT, MST at 25 C with …", "remark": "listed apart in the source"}, "[4]": {"molecular_target": "streptavidin (MST) (UniProt P22629)", "assay": "cited", "details": "PBSMCT selection buffer (PBS with Mg2+, CaCl2, 0.01% Tween 20; full composition not in material), pH 7.4 or pH 5.2 (HCl); bead assays at RT, MST at 25 C with …; cited from earlier work"}, "[5]": {"molecular_target": "streptavidin (MST) (UniProt P22629)", "assay": "MST", "details": "PBSMCT selection buffer (PBS with Mg2+, CaCl2, 0.01% Tween 20; full composition not in material), pH 7.4 or pH 5.2 (HCl); bead assays at RT, MST at 25 C with …", "remark": "listed apart in the source"}},
  "note": "pKd: −log10 of the molar value.",
  "data": [
    {"sequence": "ATACCAGCTTATTCAATTATTGACCGCTGTGTGACGCAACACTCAATTCTTGGATCTCGCTGCACACAGATAGTAAGTGCAATCT [S8]", "values": [
      {"measurement": "pKd", "setting": "[1]", "result": 8.00},
      {"measurement": "pKd", "setting": "[2]", "result": 6.95}
    ]},
    {"sequence": "ATACCAGCTTATTCAATTATTGACCGCTGTGTGACGCAACACTCAATTCTTGGATCTCGCGGCACACAGATAGTAAGTGCAATCT [S8 G61]", "values": [
      {"measurement": "binding signal (% reduction vs S8)", "setting": "[2]", "result": 75}
    ]},
    {"sequence": "ATTGACCGCTGTGTGACGCAACACTCAAT [SBA29]", "values": [
      {"measurement": "pKd", "setting": "[3]", "result": 8.46},
      {"measurement": "pKd", "setting": "[4]", "result": 7.40},
      {"measurement": "pKd", "setting": "[1]", "result": 8.21},
      {"measurement": "pKd", "setting": "[5]", "result": 7.57},
      {"measurement": "pKd", "setting": "[2]", "result": 7.98}
    ]},
    {"sequence": "ATACCAGCTTATTCAATTATTGACCGCTGTGTGACGCAACACTCAATTCTTGGATCTCGCTTCACACAGATAGTAAGTGCAATCT [S8 T62]", "values": [
      {"measurement": "binding signal (% reduction vs S8)", "setting": "[2]", "result": 65}
    ]},
    {"sequence": "ATACCAGCTTATTCAATTATTGACCGCTGTGTGACGCAACACTCAATACCTTCTCAACGTTCTCTGTAGATAGTAAGTGCAATCT [S3]", "values": [
      {"measurement": "pKd", "setting": "[2]", "result": 7.62}
    ]}
  ]
}
